Holding throughout (assay): cell-based or functional assay
Test [1] deals with H7N9病毒Nanjing-06病毒株 (H7N9病毒).
The target in test [2] is H7N9病毒Wuxi-02病毒株 (H7N9病毒).
Test [3] deals with H7N9病毒Suzhou-03病毒株 (H7N9病毒).
In test [4] the target is H7N9病毒Wuxi-01病毒株 (H7N9病毒).

B1: 全人源抗H7N9病毒的单克隆中和抗体mAb635 (antibody, V domains shown)
VH: TGVHSQVQLVQSGAEVKKPGASVKISCKASGYSFTNYTLHWVRQAPGQRLEWMGWINAGNGNTRYSQKFQARVTITRDTSASTGYMEVSSLRSEDTAVYYCARGAYYGFWNGHYMGDDDNYYYGMGVWGQGPRSPSPQRR
VL: TGSLSQPVLTQPPSVSVSPGQTASITCSGDKLGDKYACWYQQKPGQSPVQVIYQDTKRPSGIPERFSGSNSGDTATLTISGTQSVDEADYYCQAWDSSRDVVFGGGTKLTVLGQPKAAPSVTLFPTLE
For the molecule B1, the 中和100×TCID50病毒需要的抗体量 in test [1] was found to be 80 ng; in test [2], 320 ng; in test [3], 80 ng; in test [4] it was 160 ng.

(Values after CN106892979A.)
